{"source": "patent US20250304636", "data": [{"substance": "Syk", "values": [{"measurement": "tyrosine phosphorylation of Syk (IP of Syk, western blot with pan-phospho-tyrosine antibody 4G10)", "setting": "DAP12 mutant P23", "value": "P17, P19 and P23 were able to induce tyrosine phosphorylation of Syk"}, {"measurement": "tyrosine phosphorylation of Syk (IP of Syk, western blot with pan-phospho-tyrosine antibody 4G10)", "setting": "DAP12 mutant P19", "value": "P17, P19 and P23 were able to induce tyrosine phosphorylation of Syk"}, {"measurement": "tyrosine phosphorylation of Syk (IP of Syk, western blot with pan-phospho-tyrosine antibody 4G10)", "setting": "DAP12 mutant P17", "value": "P17, P19 and P23 were able to induce tyrosine phosphorylation of Syk"}]}]}
